Drawing on PMC6769586, this text covers stopped-flow CO binding (first electron transfer from CPR), fast phase k1, 1:1 CPR:CYP, 70 uM paclitaxel, 37 °C, stopped-flow CO binding (first electron transfer from CPR), slow phase k2, 1:1 CPR:CYP, 70 uM paclitaxel, 37 °C and stopped-flow CO binding (first electron transfer from CPR), monophasic k2, 3:1 CPR:CYP, 70 uM paclitaxel, 37 °C for one molecule.

Numbering of substitutions follows the chain as printed.

One assay deals with T1, CYP2C8-K399R (human) (UniProt P10632).
T1 sequence: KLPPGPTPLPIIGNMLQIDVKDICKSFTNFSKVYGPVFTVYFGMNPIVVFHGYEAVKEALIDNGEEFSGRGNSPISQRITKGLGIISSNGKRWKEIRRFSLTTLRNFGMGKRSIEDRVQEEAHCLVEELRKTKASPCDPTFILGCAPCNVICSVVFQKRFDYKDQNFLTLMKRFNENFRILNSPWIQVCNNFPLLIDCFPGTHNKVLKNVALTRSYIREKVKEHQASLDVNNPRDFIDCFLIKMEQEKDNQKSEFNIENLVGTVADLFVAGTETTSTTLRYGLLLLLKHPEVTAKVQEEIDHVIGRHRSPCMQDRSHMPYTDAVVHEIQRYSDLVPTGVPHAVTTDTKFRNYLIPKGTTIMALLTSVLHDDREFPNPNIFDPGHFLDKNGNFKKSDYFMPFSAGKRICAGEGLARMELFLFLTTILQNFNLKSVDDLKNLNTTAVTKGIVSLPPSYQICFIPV

In another assay the target is T2, CYP2C8-R139K (human) (UniProt P10632).
T2 sequence: T1 sequence with R112K, R372K

The target in assay [1] is T3, Cytochrome P450 2C8 (CYP2C8*1, wildtype) (human) (UniProt P10632).
T3 sequence: T1 sequence with R372K

Assay [2] concerns the target T4, Cytochrome P450 2C8 R139K/K399R (CYP2C8*3) (human) (UniProt P10632).
T4 sequence: T1 sequence with R112K

B1: Cytochrome P450 reductase (enzyme)
chain: MGDSHEDTSATMPEAVAEEVSLFSTTDMVLFSLIVGVLTYWFIFRKKKEEIPEFSKIQTTAPPVKESSFVEKMKKTGRNIIVFYGSQTGTAEEFANRLSKDAHRYGMRGMSADPEEYDLADLSSLPEIDKSLVVFCMATYGEGDPTDNAQDFYDWLQETDVDLTGVKFAVFGLGNKTYEHFNAMGKYVDQRLEQLGAQRIFELGLGDDDGNLEEDFITWREQFWPAVCEFFGVEATGEESSIRQYELVVHEDMDVAKVYTGEMGRLKSYENQKPPFDAKNPFLAAVTANRKLNQGTERHLMHLELDISDSKIRYESGDHVAVYPANDSALVNQIGEILGADLDVIMSLNNLDEESNKKHPFPCPTTYRTALTYYLDITNPPRTNVLYELAQYASEPSEQEHLHKMASSSGEGKELYLSWVVEARRHILAILQDYPSLRPPIDHLCELLPRLQARYYSIASSSKVHPNSVHICAVAVEYEAKSGRVNKGVATSWLRAKEPAGENGGRALVPMFVRKSQFRLPFKSTTPVIMVGPGTGIAPFMGFIQERAWLREQGKEVGETLLYYGCRRSDEDYLYREELARFHKDGALTQLNVAFSREQAHKVYVQHLLKRDREHLWKLIHEGGAHIYVCGDARNMAKDVQNTFYDIVAEFGPMEHTQAVDYVKKLMTKGRYSLDVWS
As for B1, the stopped-flow CO binding (first electron transfer from CPR), fast phase k1, 1:1 CPR:CYP, 70 uM paclitaxel, 37 °C in the assay with CYP2C8-K399R (human) was 0.445 s⁻¹; with CYP2C8-R139K (human) it was 0.406 s⁻¹; in assay [1], 0.468 s⁻¹. In the assay with CYP2C8-K399R (human), this molecule gave a stopped-flow CO binding (first electron transfer from CPR), slow phase k2, 1:1 CPR:CYP, 70 uM paclitaxel, 37 °C of 19.4 ms^-1. Also, the stopped-flow CO binding (first electron transfer from CPR), monophasic k2, 3:1 CPR:CYP, 70 uM paclitaxel, 37 °C in the assay with CYP2C8-R139K (human) was determined as 6.02 ms^-1; in assay [2], 13.7 ms^-1.
